Laboratory results: patent US20100196361A1, “Method of inhibition of vascular development using an antibody” (DYAX CORP., priority 2003, published 2010)
Entries after “also recorded” stand apart in the source; their conditions may differ.

Legend:
[1] = target: Tie1 (Homo sapiens, UniProt P35590); assay: Immunohistochemistry of matched tumor and normal tissue sections; assay type: binding; settings: frozen sections
Method: To evaluate the binding of E3 to Tie1 in primary tumor and normal tissue the antibody was produced as an IgG and biotin labeled. The E3 antibody and two other anti Tie1 antibodies B2 and D11 were reformatted as full length IgG molecules. Nucleic acids encoding these IgGs were transiently transfected into HEK293T cells. Plasmid preparations for transient cell transfections were performed using the HP-[…]™ MIDI prep kit (Sigma, cat. no. NA0200). HEK293T cells (GenHunter Corp. cat. no. Q401) were seeded 24 hours before transfection; 6×10^6 cells were plated per 10-cm culture dish. Transfections were carried out using LIPOFECTAMINE™ 2000 reagent (Invitrogen, cat. no. 11668019) following the manufacturer's instructions. Five micrograms of plasmid DNA was used per 10-cm dish. Cells were cultured in DMEM (Invitrogen, cat. no. 31966021) supplemented with 10% “ultra-low IgG” fetal calf serum (Invitrogen, cat. no. 16250078), at 37° C., 5% CO2, in a water saturated atmosphere. Conditioned media were harvested 72 hours and 144 hours after transfection, pooled and sterile filtered.
The Tie1 antibodies were biotinylated using the EZ-link Sulfo-NHS-SS-Biotin (Pierce, Cat. 21331). For Tie1/Fc and Tie1-His, the reaction was performed for 2 hours on ice in 50 mM sodium carbonate buffer, pH 9.6, in the presence of a 5-fold molar excess of biotinylating agent. For the antibodies, the reaction was performed for 2 hours on ice in PBS, in the presence of a 15-fold molar excess of EZ-link Sulfo-NHS-SS-Biotin. The reaction was stopped by the addition of Tris-HCl, pH 7.5 (50 mM final concentration) followed by a 1-hour incubation on ice. Samples were then dialyzed against PBS.
Various normal and tumor tissue sections were stained with biotinylated antibodies. A mouse monoclonal anti-Tie1 antibody (7e8) (Alitalo laboratory, University of Helsinki) was used as a positive control. Sections without primary antibody served as negative control. All samples were fresh frozen tissues and staining was performed with the TSA-kit (Perkin-Elmer Life Sciences). After acetone fixation (10-20 min, −20° C.) the slides were treated with 0.73% H2O2 for 10 min to reduce endogenous peroxidase activity followed by blocking for 30 min with TNB buffer. Sections ([…] thick) were incubated with primary antibodies (10 μg/ml) overnight at 4° C. Sections with the mouse monoclonal anti-tie1 antibody (7e8) were treated with biotinylated anti-mouse antibodies (VectaStain) before the addition of streptavidin-HRP. Signal was amplified by using a TSA kit and the visualized by AEC (235 ml NaAc,15 ml AEC (stock solution: 1600 mg 3-amino-9-ethyl-carbazole and 480 ml N-dimethylformamide), 250 μl H2O2).

[2] = tested on: human platelets; assay: Flow cytometry on human platelets; assay type: binding; settings: total (CD42) and thrombin-activated (CD62) platelets
Method: To avoid platelet activation, human platelets were isolated from plasma of healthy donors using the platelet GelSep kit (Biocytex, Marseille, France) kit according to the guidelines of the manufacturer. Platelets were activated by the addition of thrombin to a final concentration of 0.8 U/ml. To distinguish activated from non-activated platelets double staining was performed with Tie1 antibodies/control antibodies and antibody CD42 (total platelets) or CD62 (activated platelets).
After preparation, platelets were resuspended in buffer 2 of the GelSep kit, 10% heat inactivated human serum (incubation buffer) and incubated for 1 hour. […] Platelets were spun down by centrifugation for 10 min at 611 g. Between incubations platelets were washed twice with Buffer 1 of the GelSep kit. Then, Strepatvidin-R-phycoerythrin together with anti-CD42-PercP or anti-CD62-PercP were incubated for 30 minutes at room temperature in incubation buffer After the last incubation and washing detection of bound antibodies was performed by means of flow cytometry on a FACSscan and Epics Altra (Becton Dickinson, Oxnard, Coulter,) and results analyzed. Cells were gated on SSC and anti-CD42-PercP for the total platelets in case non-activated platelets were used and on SSC and anti-CD62-PercP for the activated platelets. […]

Chain of Tie1 (P35590 22-1138): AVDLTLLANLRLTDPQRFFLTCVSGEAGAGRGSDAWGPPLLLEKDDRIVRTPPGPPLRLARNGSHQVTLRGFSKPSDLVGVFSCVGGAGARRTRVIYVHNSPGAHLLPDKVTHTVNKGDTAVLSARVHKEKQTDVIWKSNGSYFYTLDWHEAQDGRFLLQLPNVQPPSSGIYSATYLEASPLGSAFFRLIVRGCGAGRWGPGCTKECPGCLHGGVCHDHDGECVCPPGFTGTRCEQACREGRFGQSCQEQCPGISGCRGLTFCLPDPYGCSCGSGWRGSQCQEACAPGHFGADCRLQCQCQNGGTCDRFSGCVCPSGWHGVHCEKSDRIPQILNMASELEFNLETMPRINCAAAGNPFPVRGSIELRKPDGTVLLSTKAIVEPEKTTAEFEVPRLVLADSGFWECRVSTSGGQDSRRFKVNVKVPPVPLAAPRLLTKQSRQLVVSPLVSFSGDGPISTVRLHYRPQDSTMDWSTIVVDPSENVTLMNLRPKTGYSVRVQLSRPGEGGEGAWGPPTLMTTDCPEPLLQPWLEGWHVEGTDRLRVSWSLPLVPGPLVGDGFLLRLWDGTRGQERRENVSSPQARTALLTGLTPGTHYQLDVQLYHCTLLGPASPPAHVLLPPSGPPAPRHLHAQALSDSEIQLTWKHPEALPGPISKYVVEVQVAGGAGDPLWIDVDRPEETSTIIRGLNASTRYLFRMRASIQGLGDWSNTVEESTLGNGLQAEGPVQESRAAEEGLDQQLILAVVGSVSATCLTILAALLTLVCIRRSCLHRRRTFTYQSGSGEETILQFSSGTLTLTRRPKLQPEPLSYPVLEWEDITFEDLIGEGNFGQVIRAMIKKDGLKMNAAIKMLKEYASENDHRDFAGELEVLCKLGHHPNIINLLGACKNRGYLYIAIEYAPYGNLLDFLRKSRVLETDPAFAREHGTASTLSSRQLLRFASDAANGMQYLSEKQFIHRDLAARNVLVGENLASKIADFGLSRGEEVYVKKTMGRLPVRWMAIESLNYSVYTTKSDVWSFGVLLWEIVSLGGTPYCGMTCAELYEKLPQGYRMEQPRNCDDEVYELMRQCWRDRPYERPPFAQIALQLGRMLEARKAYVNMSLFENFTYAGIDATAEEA

B1: E3: human anti-Tie1 antibody from phage Fab library, reformatted as IgG; HC variable SEQ ID NO:114, LC variable SEQ ID NO:116 (antibody, V domains shown)
VH: EVQLLESGGGLVQPGGSLRLSCAASGFTFSMYGMVWVRQAPGKGLEWVSVISPSGGNTGYADSVKGRFTISRDNSKNTLYLQVNSLRAEDTAVYYCARAPRGYSYGYYYWGQGTLVTVSSASTKGPSVFPLAPSSKSTSGG
VL: DIQMTQSPLSLSASVGDRVTITCRASQGIGHYLAWYQQKPGKVPKLLIYTASTLQSGVPSRFSGSGSGTDFTLTINSLQPEDVATYYCQQFNSYPHTFGQGTRLDIK
modifications: IgG constant regions; Synthetically generated peptide
For B1, the “staining of breast (mammary tissue)” value ([1]; 10 μg/ml) was “brightest staining in the veins and capillaries of the mammary tissue”, the “staining of breast carcinoma” value ([1]; 10 μg/ml) was “stained also other structures in addition to vessels” and the “staining of hypernephroma tissue” value ([1]; 10 μg/ml) was “clear staining”. The staining of kidney ([1]; 10 μg/ml) was “stained kidney tubules in addition to the vessels”, the “staining of lung carcinoma” value ([1]; 10 μg/ml) was “stained structures other than vessels” and the “staining of melanoma tissue” value ([1]; 10 μg/ml) was “also stained other surrounding structures”. For the same molecule, the “staining of normal lung” value ([1]; 10 μg/ml) was “stained especially clearly the large veins in the lung”, the “staining of normal skin” value ([1]; 10 μg/ml) was “stained blood vessels very faintly” and the “tissue specificity of vessel staining in normal tissues” value ([1]; biotinylated antibody 10 μg/ml) was “stained vessels in the lung and kidney but not in the skin”. For the same molecule, the binding to platelets [2] was “Only a background number of CD42 positive cells are labeled; also recorded: no significant binding to total platelets, nor to activated platelets” and the binding to platelets ([2]; listed as DX-2200) was “did not show significant binding to platelets”.
